# In the supplement of paper PMC10724198:
# ± gives the standard deviation of the averaged measurements.
# System: Saccharomyces cerevisiae
# Experiment: protein stability index of tFT-peptide fusion (C-terminal peptide) (PSI (0-1 scale)); higher = more stable (slower turnover)
# Conditions: genetic background: wild type; temperature: 30 C
# Protocol: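 Multiplexed protein stability (MPS) profiling in S. cerevisiae. Random 12-aa peptides (tFT-X12 library) are fused to the C-terminus of a sfGFP-mCherry tandem fluorescent timer, after mCherry and a GGGS linker. Cells are FACS-sorted into 8 mCherry/sfGFP bins and deep-sequenced. The protein stability index (PSI) is the read-weighted bin average, scaled from 0 (unstable) to 1 (stable). Only peptides with >10 reads are reported; cells were grown at 30 °C in SC-His with glucose.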
# 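Also: PSI is a weighted mean of sequencing reads over stability bins, variants kept only with over 10 reads, mCherry proximal and sfGFP distal, peptide attached via GGGS linker.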
row,Sequence,protein stability index
1,GGGLREARVLRG,0.711 ± 0.015
2,GGGLSGEGGLGR,0.639 ± 0.014
3,GGGLWLYKKLVF,0.682 ± 0.13
4,GGGNEDCLRGGY,0.651 ± 0.056
5,GGGNGGTGCDWG,0.629 ± 0.018
6,GGGPWGRVGRGG,0.679 ± 0.037
7,GGGRALEGAAGP,0.583 ± 0.063
8,GGGRGGGGGGDA,0.697 ± 0.038
9,GGGRGLRCNGLG,0.738 ± 0.1
10,GGGRGNRGEKMT,0.67 ± 0.012
11,GGGRGRAGVGVW,0.714 ± 0.05
12,GGGVGASMSGTP,0.689 ± 0.0069
13,GGGVGEWCLVRL,0.6849 ± 4.4e-05
14,GGGVWQWERGRG,0.811 ± 0.14
15,GGGWCSGYLAGV,0.679 ± 0.056
16,GGGWSRGGSGAG,0.687 ± 0.011
17,GGIPINVLPGCR,0.739 ± 0.15
18,GGLGVGPGWWGP,0.733 ± 0.043
19,GGLGWGARQGAL,0.68 ± 0.024
20,GGLICRHGGGRG,0.706 ± 0.02
21,GGLWAAAGKARV,0.692 ± 0.026
22,GGNDIIQNRKGK,0.674 ± 0.039
23,GGNGIVPVWMNF,0.695 ± 0.041
24,GGPAWGRVGMYW,0.666 ± 0.047
25,GGPVGGGGGSGE,0.641 ± 0.032
26,GGQGKWPGTPLL,0.738 ± 0.022

row,Sequence,protein stability index
1,GGRCGREGGAER,0.61 ± 0.054
2,GGRCWMCVAVTE,0.591 ± 0.019
3,GGRGGATRRGSL,0.764 ± 0.055
4,GGRGGEVVLWQA,0.726 ± 0.12
5,GGRGREGRPPGP,0.641 ± 0.034
6,GGRNGLGITGGE,0.648 ± 0.034
7,GGRRLKDAETWA,0.615 ± 0.029
8,GGRRTEIYTGPA,0.703 ± 0.019
9,GGRVWAGGYLGA,0.707 ± 0.068
10,GGRWGDSGMGVV,0.715 ± 0.026
11,GGSCGFGLGAGG,0.665 ± 0.041
12,GGSDLLIGFWPC,0.716 ± 0.027
13,GGSGPSGSPRRR,0.727 ± 0.054
14,GGSSLSSSSVIR,0.675 ± 0.036
15,GGSSWSLGGGGG,0.7406 ± 0.0023
16,GGSWGVGGVFVR,0.658 ± 0.03
17,GGTGFMHSVDYG,0.644 ± 0.0089
18,GGTRCQYKNLFG,0.683 ± 0.029
19,GGTSCLLSTAGD,0.653 ± 0.079
20,GGVEWEQQGRKE,0.706 ± 0.072
21,GGVGGGVEPCFV,0.66 ± 0.028
22,GGVGGRGIGFPR,0.684 ± 0.055
23,GGVLGPEVCVGG,0.693 ± 0.047
24,GGVRGGAAEGAV,0.751 ± 0.076
25,GGVRGRRLLGGR,0.7 ± 0.046
26,GGVRGVRGRGVG,0.639 ± 0.049

row,Sequence,protein stability index
1,GGVRSLLWAVVW,0.583 ± 0.009
2,GGVSVPSERFRS,0.788 ± 0.044
3,GGVWFSCSSAFS,0.871 ± 0.075
4,GGWDLIASVREF,0.649 ± 0.017
5,GGWGGRGQGWYR,0.6673 ± 0.0055
6,GGWGRRRLDGGR,0.7221 ± 0.0064
7,GGWWWAVGFGGL,0.66 ± 0.017
8,GGYGEGAVLFVG,0.58 ± 0.012
9,GHAITSALITHR,0.652 ± 0.024
10,GHKIIPPSTRFR,0.626 ± 0.063
11,GHSRSTFPWLVI,0.79 ± 0.095
12,GIAACASSGLAV,0.657 ± 0.034
13,GIENTYVVIFID,0.598 ± 0.068
14,GIGEGRDGFVVV,0.67 ± 0.058
15,GIGVVVLGGCTR,0.706 ± 0.056
16,GIHLAPVCASSP,0.71 ± 0.035
17,GIIQKAQTSIKI,0.592 ± 0.0067
18,GIKAIEKGDIHL,0.699 ± 0.021
19,GILFFPSGGISP,0.805 ± 0.12
20,GILRSDAVWSFI,0.699 ± 0.042
21,GILSPSSLVSSL,0.69 ± 0.057
22,GITHSFLRSSVV,0.689 ± 0.054
23,GITWSYNKSISH,0.722 ± 0.048
24,GIVRGCGGGGEE,0.6922 ± 0.0049
25,GIVVEELIFCGR,0.63 ± 0.0087
26,GIYFARRVVDFG,0.65 ± 0.011

row,Sequence,protein stability index
1,GKDSSTASNRYT,0.688 ± 0.027
2,GKEIHREIIVTV,0.618 ± 0.014
3,GKKEGREAGDRG,0.691 ± 0.092
4,GKKKKRIDTKYK,0.713 ± 0.15
5,GKKRTGRGESAK,0.693 ± 0.062
6,GKLQFAEYYNGI,0.66 ± 0.0081
7,GKNKYIYKKKRH,0.792 ± 0.072
8,GKRKREEDEEKK,0.686 ± 0.097
9,GKRRTIQPGQKM,0.698 ± 0.032
10,GKSRRQGCDPRR,0.659 ± 0.035
11,GKTRLRAKLTYN,0.62 ± 0.08
12,GLAASAFAVEEV,0.711 ± 0.099
13,GLALSPFPTLSL,0.64677 ± 0.00031
14,GLARPFVGFPHL,0.7352 ± 0.0028
15,GLCGFLLIETLL,0.64 ± 0.0085
16,GLDSGVAGRRGV,0.662 ± 0.0087
17,GLEFTAFRLRFL,0.667 ± 0.068
18,GLERAVGWAVCG,0.622 ± 0.015
19,GLERGRLGSGCG,0.652 ± 0.0075
20,GLFRESVLGSVW,0.708 ± 0.013
21,GLFSGRCLCGGG,0.688 ± 0.025
22,GLFSRGKLIALS,0.571 ± 0.099
23,GLGATSGGLRCG,0.654 ± 0.014
24,GLGAWRGAGRVG,0.649 ± 0.053
25,GLGGAWACGGGR,0.719 ± 0.11
26,GLGKWGGGGDER,0.723 ± 0.012

row,Sequence,protein stability index
1,GLGLGGRGMRVV,0.687 ± 0.018
2,GLGQGVGGPWAV,0.678 ± 0.041
3,GLGQHPSLMSPP,0.706 ± 0.028
4,GLIGLVHFWRGT,0.655 ± 0.035
5,GLKKRTIILSVK,0.532 ± 0.0056
6,GLPFRYASYLFS,0.704 ± 0.031
7,GLPLPTPLLPSP,0.723 ± 0.01
8,GLPWRRVGGGSG,0.699 ± 0.048
9,GLRENIFTDKKN,0.728 ± 0.06
10,GLRHCLLHRTCQ,0.599 ± 0.0079
11,GLRLFWFRRVRA,0.537 ± 0.012
12,GLRSVQISHIRQ,0.694 ± 0.012
13,GLRYGLALARPF,0.65 ± 0.034
14,GLSFITAGGLVF,0.688 ± 0.052
15,GLSLSLLSSLFV,0.71 ± 0.02
16,GLVDVYWVCIIV,0.6069 ± 0.0046
17,GLVLILRLFSRG,0.494 ± 0.056
18,GLWSWFLCYEFY,0.657 ± 0.02
19,GLYDGSRLVKLE,0.736 ± 0.039
20,GMFVCGVGVVGG,0.704 ± 0.19
21,GMRGGGRAQDAR,0.6609 ± 0.002
22,GMRRGGGGCRGW,0.716 ± 0.033
23,GMSRVSDRRWGS,0.681 ± 0.013
24,GMWVGGRGVVGV,0.627 ± 0.0076
25,GNCGLLSLYTLF,0.503 ± 0.023
26,GNCPGYSELGRF,0.6941 ± 0.0044

row,Sequence,protein stability index
1,GNDICLVGARVV,0.6696 ± 0.0059
2,GNFYFSGSGFFI,0.709 ± 0.031
3,GNGVNLEYDKRK,0.721 ± 0.059
4,GNKKEKYNRTSS,0.683 ± 0.0078
5,GNLTPHSERLPP,0.658 ± 0.0084
6,GNLVKTLERDKP,0.736 ± 0.034
7,GNNLCILNERFP,0.763 ± 0.019
8,GPCRVSLSFFFF,0.577 ± 0.06
9,GPFHSGSASRSA,0.653 ± 0.047
10,GPGAVTALGYGR,0.668 ± 0.015
11,GPGLSPPYPSPA,0.704 ± 0.029
12,GPGSFAPLPPRS,0.684 ± 0.033
13,GPLPYISLSFSP,0.7304 ± 0.0028
14,GPPPRSPAFRSL,0.695 ± 0.092
15,GPPPRYLPAFPA,0.7057 ± 0.0042
16,GPPSRPPRRTAP,0.707 ± 0.14
17,GPRDPSCLLPPL,0.653 ± 0.013
18,GPRRVAVAGETS,0.715 ± 0.037
19,GPTPHPVPTTCS,0.69 ± 0.016
20,GPVQWSLLGGSW,0.65 ± 0.012
21,GPVYPGSRPAFT,0.708 ± 0.092
22,GPWGGSGGGGVG,0.628 ± 0.041
23,GQMDGGMGGKVI,0.582 ± 0.062
24,GQNGFVDGGCVL,0.677 ± 0.0081
25,GQQETIGLRAHI,0.681 ± 0.025
